This is an account of results in US20220324996A1 (published 2022).

In assay [1] the target is T1, human SIRP-γ (human, UniProt Q9P1W8 29-147).
T1 construct: Soluble SIRP analyte in SPR; also called hSIRPg; SIRPg
The experiment in a line: SPR.

Assay [2] deals with T2, human SIRP-α v1 (human, UniProt P78324 31-149).
T2 construct: Soluble SIRP analyte in SPR; also called hSIRPa v1; Human V1
In words: SPR. Here is the method: The interactions of anti-SIRPα antibodies with SIRPα from various species (human v1, human v2, cynomolgus, mouse 129, BL6, BALBc, NOD), SIRPβ and SIRPγ were analyzed using two methods, direct immobilization of the antibodies (via GLC chip) or capture via biotinylated Protein A (via NLC chip), according to the following protocols. All experiments were performed at 25° C. using a SPR-based ProteOn XPR36 biosensor (BioRad. Inc, Hercules, Calif.) equipped with GLC or NLC sensor chips. […] Purification was carried out by standard Protein A affinity column chromatography and eluted antibodies were stored in PBS buffer.

T2 sequence (P78324 31-149 limits assumed): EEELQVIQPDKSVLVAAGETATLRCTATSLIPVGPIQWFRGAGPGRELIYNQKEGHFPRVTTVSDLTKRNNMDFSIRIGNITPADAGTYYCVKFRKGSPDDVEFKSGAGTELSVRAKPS
T1 sequence (Q9P1W8 29-147 limits assumed): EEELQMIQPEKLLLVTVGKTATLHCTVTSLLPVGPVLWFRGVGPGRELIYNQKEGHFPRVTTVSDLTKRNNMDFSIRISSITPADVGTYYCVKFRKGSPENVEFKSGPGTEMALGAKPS

B1: Hum1/AB21_HC_Mutall (antibody, V domains shown)
VH: EVQLVESGGGVVQPGGSLRLSCAASGFTFSSNAMSWVRQAPGKGLEWVAGISAGGSDTYYPASVKGRFTISRDNSKNTLYLQMNSLRAEDTAVYYCARETWNHLFDYWGQGTLVTVSS
VL: SYELTQPPSVSVSPGQTARITCSGGSYSSYYYAWYQQKPGQAPVTLIYSDDKRPSNIPERFSGSSSGTTVTLTISGVQAEDEADYYCGGYDQSSYTNPFGGGTKLTVL
notes: also called Hum1/AB21mutall
For the molecule B1, the Kd is greater than 1 pM in assay [1] and no more than 0.01 nM in assay [2].
